Measurements published in the MegaScale stability set (Tsuboyama et al. 2023).

B1: EEHEE_rd4_0647 (parent)
chain: MQVTWGNVTVTFSNPEEAKKYAEKVARKLGGQVELHNGQFRIK

Variants of: B1
Assay: folding stability dG (cDNA display proteolysis); higher = more stable
Details: PBS, room temperature

Question: For MQVTWGNVTPTFSNPEEAKKYAEKVARKLGGQVELHNGQFRIK, which “folding stability dG” value is on record?
Answer: The value was -0.399 kcal/mol.

Question: With MQVTWGNVTLTFSNPEEAKKYAEKVARKLGGQVELHNGQFRIK as the variant, how does the “folding stability dG” value read?
Answer: The value was 2.76 kcal/mol.

Question: With MQVTWGNVTATFSNPEEAKKYAEKVARKLGGQVELHNGQFRIK as the variant, how does the “folding stability dG” value read?
Answer: Its value is 1.97 kcal/mol.

Question: Which “folding stability dG” value does the source give for MQVTWGNVTRTFSNPEEAKKYAEKVARKLGGQVELHNGQFRIK here?
Answer: Its value is 2.65 kcal/mol.

Question: With MQVTWGNVTKTFSNPEEAKKYAEKVARKLGGQVELHNGQFRIK as the variant, how does the “folding stability dG” value read?
Answer: Its value is 2.66 kcal/mol.

Question: Which “folding stability dG” value does the source give for MQVTWGNVTFTFSNPEEAKKYAEKVARKLGGQVELHNGQFRIK here?
Answer: The value was 2.53 kcal/mol.

Question: For MQVTWGNVTGTFSNPEEAKKYAEKVARKLGGQVELHNGQFRIK, which “folding stability dG” value is on record?
Answer: The value was 0.582 kcal/mol.

Question: Which “folding stability dG” value does the source give for MQVTWGNVTDTFSNPEEAKKYAEKVARKLGGQVELHNGQFRIK here?
Answer: Its value is 0.472 kcal/mol.

Question: With MQVTWGNVTETFSNPEEAKKYAEKVARKLGGQVELHNGQFRIK as the variant, how does the “folding stability dG” value read?
Answer: Its value is 1.5 kcal/mol.

Question: With MQVTWGNVTCTFSNPEEAKKYAEKVARKLGGQVELHNGQFRIK as the variant, how does the “folding stability dG” value read?
Answer: Its value is 3.62 kcal/mol.

Question: For MQVTWGNVTMTFSNPEEAKKYAEKVARKLGGQVELHNGQFRIK, which “folding stability dG” value is on record?
Answer: The value was 2.67 kcal/mol.

Question: For MQVTWGNVTNTFSNPEEAKKYAEKVARKLGGQVELHNGQFRIK, which “folding stability dG” value is on record?
Answer: The value was 1.2 kcal/mol.

Question: With MQVTWGNVTITFSNPEEAKKYAEKVARKLGGQVELHNGQFRIK as the variant, how does the “folding stability dG” value read?
Answer: The value was 2.94 kcal/mol.

Question: Which “folding stability dG” value does the source give for MQVTWGNVTQTFSNPEEAKKYAEKVARKLGGQVELHNGQFRIK here?
Answer: Its value is 1.85 kcal/mol.

Question: With MQVTWGNVTHTFSNPEEAKKYAEKVARKLGGQVELHNGQFRIK as the variant, how does the “folding stability dG” value read?
Answer: Its value is 2.15 kcal/mol.

Question: With MQVTGGNVTVTFSNPEEAKKYAEKVARKLGGQVELHNGQFRIK as the variant, how does the “folding stability dG” value read?
Answer: The value was 0.431 kcal/mol.

Question: For MQVTNGNVTVTFSNPEEAKKYAEKVARKLGGQVELHNGQFRIK, which “folding stability dG” value is on record?
Answer: Its value is 1.12 kcal/mol.

Question: For MQVTVGNVTVTFSNPEEAKKYAEKVARKLGGQVELHNGQFRIK, which “folding stability dG” value is on record?
Answer: Its value is 2.64 kcal/mol.

Question: With MQVTHGNVTVTFSNPEEAKKYAEKVARKLGGQVELHNGQFRIK as the variant, how does the “folding stability dG” value read?
Answer: The value was 2.15 kcal/mol.

Question: For MQVTRGNVTVTFSNPEEAKKYAEKVARKLGGQVELHNGQFRIK, which “folding stability dG” value is on record?
Answer: Its value is 0.966 kcal/mol.

Question: For MQVTDGNVTVTFSNPEEAKKYAEKVARKLGGQVELHNGQFRIK, which “folding stability dG” value is on record?
Answer: The value was 1.03 kcal/mol.

Question: For MQVTFGNVTVTFSNPEEAKKYAEKVARKLGGQVELHNGQFRIK, which “folding stability dG” value is on record?
Answer: Its value is 2.53 kcal/mol.

Question: With MQVTTGNVTVTFSNPEEAKKYAEKVARKLGGQVELHNGQFRIK as the variant, how does the “folding stability dG” value read?
Answer: The value was 1.19 kcal/mol.

Question: Which “folding stability dG” value does the source give for MQVTPGNVTVTFSNPEEAKKYAEKVARKLGGQVELHNGQFRIK here?
Answer: The value was 0.153 kcal/mol.

Question: With MQVTKGNVTVTFSNPEEAKKYAEKVARKLGGQVELHNGQFRIK as the variant, how does the “folding stability dG” value read?
Answer: The value was 0.547 kcal/mol.

Question: With MQVTQGNVTVTFSNPEEAKKYAEKVARKLGGQVELHNGQFRIK as the variant, how does the “folding stability dG” value read?
Answer: The value was 0.719 kcal/mol.

Question: Which “folding stability dG” value does the source give for MQVTMGNVTVTFSNPEEAKKYAEKVARKLGGQVELHNGQFRIK here?
Answer: Its value is 1.83 kcal/mol.

Question: Which “folding stability dG” value does the source give for MQVTEGNVTVTFSNPEEAKKYAEKVARKLGGQVELHNGQFRIK here?
Answer: Its value is 0.581 kcal/mol.

Question: For MQVTCGNVTVTFSNPEEAKKYAEKVARKLGGQVELHNGQFRIK, which “folding stability dG” value is on record?
Answer: Its value is 3.09 kcal/mol.

Question: With MQVTSGNVTVTFSNPEEAKKYAEKVARKLGGQVELHNGQFRIK as the variant, how does the “folding stability dG” value read?
Answer: The value was 0.968 kcal/mol.

Question: Which “folding stability dG” value does the source give for MQVTIGNVTVTFSNPEEAKKYAEKVARKLGGQVELHNGQFRIK here?
Answer: The value was 2.61 kcal/mol.

Question: Which “folding stability dG” value does the source give for MQVTYGNVTVTFSNPEEAKKYAEKVARKLGGQVELHNGQFRIK here?
Answer: The value was 2.53 kcal/mol.

Question: For MQVTLGNVTVTFSNPEEAKKYAEKVARKLGGQVELHNGQFRIK, which “folding stability dG” value is on record?
Answer: Its value is 2.12 kcal/mol.

Question: With MQVTAGNVTVTFSNPEEAKKYAEKVARKLGGQVELHNGQFRIK as the variant, how does the “folding stability dG” value read?
Answer: The value was 1.17 kcal/mol.

Question: With MQVTWTNVTVTFSNPEEAKKYAEKVARKLGGQVELHNGQFRIK as the variant, how does the “folding stability dG” value read?
Answer: Its value is 1.3 kcal/mol.

Question: With MQVTWDNVTVTFSNPEEAKKYAEKVARKLGGQVELHNGQFRIK as the variant, how does the “folding stability dG” value read?
Answer: The value was 2.86 kcal/mol.

Question: For MQVTWMNVTVTFSNPEEAKKYAEKVARKLGGQVELHNGQFRIK, which “folding stability dG” value is on record?
Answer: The value was 2.32 kcal/mol.

Question: With MQVTWSNVTVTFSNPEEAKKYAEKVARKLGGQVELHNGQFRIK as the variant, how does the “folding stability dG” value read?
Answer: Its value is 2.08 kcal/mol.

Question: For MQVTWFNVTVTFSNPEEAKKYAEKVARKLGGQVELHNGQFRIK, which “folding stability dG” value is on record?
Answer: The value was 2.55 kcal/mol.

Question: For MQVTWLNVTVTFSNPEEAKKYAEKVARKLGGQVELHNGQFRIK, which “folding stability dG” value is on record?
Answer: Its value is 2.49 kcal/mol.

Question: Which “folding stability dG” value does the source give for MQVTWYNVTVTFSNPEEAKKYAEKVARKLGGQVELHNGQFRIK here?
Answer: Its value is 2.51 kcal/mol.

Question: With MQVTWQNVTVTFSNPEEAKKYAEKVARKLGGQVELHNGQFRIK as the variant, how does the “folding stability dG” value read?
Answer: The value was 1.99 kcal/mol.

Question: For MQVTWWNVTVTFSNPEEAKKYAEKVARKLGGQVELHNGQFRIK, which “folding stability dG” value is on record?
Answer: Its value is 2.76 kcal/mol.

Question: With MQVTWANVTVTFSNPEEAKKYAEKVARKLGGQVELHNGQFRIK as the variant, how does the “folding stability dG” value read?
Answer: The value was 2.25 kcal/mol.

Question: With MQVTWKNVTVTFSNPEEAKKYAEKVARKLGGQVELHNGQFRIK as the variant, how does the “folding stability dG” value read?
Answer: The value was 2.1 kcal/mol.

Question: For MQVTWHNVTVTFSNPEEAKKYAEKVARKLGGQVELHNGQFRIK, which “folding stability dG” value is on record?
Answer: Its value is 2.48 kcal/mol.

Question: Which “folding stability dG” value does the source give for MQVTWNNVTVTFSNPEEAKKYAEKVARKLGGQVELHNGQFRIK here?
Answer: The value was 2.38 kcal/mol.

Question: For MQVTWRNVTVTFSNPEEAKKYAEKVARKLGGQVELHNGQFRIK, which “folding stability dG” value is on record?
Answer: Its value is 2.21 kcal/mol.

Question: For MQVTWINVTVTFSNPEEAKKYAEKVARKLGGQVELHNGQFRIK, which “folding stability dG” value is on record?
Answer: Its value is 1.59 kcal/mol.

Question: With MQVTWCNVTVTFSNPEEAKKYAEKVARKLGGQVELHNGQFRIK as the variant, how does the “folding stability dG” value read?
Answer: Its value is 3.2 kcal/mol.

Question: For MQVTWVNVTVTFSNPEEAKKYAEKVARKLGGQVELHNGQFRIK, which “folding stability dG” value is on record?
Answer: The value was 1.39 kcal/mol.

Question: With MQVTWENVTVTFSNPEEAKKYAEKVARKLGGQVELHNGQFRIK as the variant, how does the “folding stability dG” value read?
Answer: The value was 1.96 kcal/mol.

Question: For MQVTWPNVTVTFSNPEEAKKYAEKVARKLGGQVELHNGQFRIK, which “folding stability dG” value is on record?
Answer: Its value is 0.79 kcal/mol.

Question: For MQVTWGNRTVTFSNPEEAKKYAEKVARKLGGQVELHNGQFRIK, which “folding stability dG” value is on record?
Answer: The value was 2.5 kcal/mol.

Question: For MQVTWGNETVTFSNPEEAKKYAEKVARKLGGQVELHNGQFRIK, which “folding stability dG” value is on record?
Answer: Its value is 1.92 kcal/mol.

Question: Which “folding stability dG” value does the source give for MQVTWGNKTVTFSNPEEAKKYAEKVARKLGGQVELHNGQFRIK here?
Answer: Its value is 2.57 kcal/mol.

Question: Which “folding stability dG” value does the source give for MQVTWGNPTVTFSNPEEAKKYAEKVARKLGGQVELHNGQFRIK here?
Answer: The value was 0.417 kcal/mol.

Question: With MQVTWGNGTVTFSNPEEAKKYAEKVARKLGGQVELHNGQFRIK as the variant, how does the “folding stability dG” value read?
Answer: The value was 1.49 kcal/mol.

Question: Which “folding stability dG” value does the source give for MQVTWGNSTVTFSNPEEAKKYAEKVARKLGGQVELHNGQFRIK here?
Answer: The value was 2.01 kcal/mol.
